# From IntAct's records for PubMed 8940095
# Biological target: pdli5_rat Pdlim5 (UniProt Q62920)
# Sequence (Q62920 whole entry): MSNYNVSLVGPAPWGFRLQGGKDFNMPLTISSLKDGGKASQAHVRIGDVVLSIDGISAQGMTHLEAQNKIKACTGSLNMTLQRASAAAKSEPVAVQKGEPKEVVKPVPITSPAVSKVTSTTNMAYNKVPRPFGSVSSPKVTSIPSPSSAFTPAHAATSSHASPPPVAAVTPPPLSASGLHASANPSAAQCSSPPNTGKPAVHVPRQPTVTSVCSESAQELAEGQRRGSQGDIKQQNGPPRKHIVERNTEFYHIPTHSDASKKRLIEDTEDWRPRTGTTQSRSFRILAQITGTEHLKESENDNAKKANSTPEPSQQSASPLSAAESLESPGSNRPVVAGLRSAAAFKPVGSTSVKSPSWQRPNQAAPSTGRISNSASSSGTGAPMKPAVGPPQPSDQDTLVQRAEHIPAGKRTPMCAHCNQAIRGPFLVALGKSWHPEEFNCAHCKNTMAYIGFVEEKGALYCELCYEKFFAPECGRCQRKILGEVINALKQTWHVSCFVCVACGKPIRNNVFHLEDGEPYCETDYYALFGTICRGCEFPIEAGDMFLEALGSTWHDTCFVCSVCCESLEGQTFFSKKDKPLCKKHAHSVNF
# Chain of Protein kinase C beta type (Rattus norvegicus (Rat)), P68403-1 K371M (P68403 whole entry K371M): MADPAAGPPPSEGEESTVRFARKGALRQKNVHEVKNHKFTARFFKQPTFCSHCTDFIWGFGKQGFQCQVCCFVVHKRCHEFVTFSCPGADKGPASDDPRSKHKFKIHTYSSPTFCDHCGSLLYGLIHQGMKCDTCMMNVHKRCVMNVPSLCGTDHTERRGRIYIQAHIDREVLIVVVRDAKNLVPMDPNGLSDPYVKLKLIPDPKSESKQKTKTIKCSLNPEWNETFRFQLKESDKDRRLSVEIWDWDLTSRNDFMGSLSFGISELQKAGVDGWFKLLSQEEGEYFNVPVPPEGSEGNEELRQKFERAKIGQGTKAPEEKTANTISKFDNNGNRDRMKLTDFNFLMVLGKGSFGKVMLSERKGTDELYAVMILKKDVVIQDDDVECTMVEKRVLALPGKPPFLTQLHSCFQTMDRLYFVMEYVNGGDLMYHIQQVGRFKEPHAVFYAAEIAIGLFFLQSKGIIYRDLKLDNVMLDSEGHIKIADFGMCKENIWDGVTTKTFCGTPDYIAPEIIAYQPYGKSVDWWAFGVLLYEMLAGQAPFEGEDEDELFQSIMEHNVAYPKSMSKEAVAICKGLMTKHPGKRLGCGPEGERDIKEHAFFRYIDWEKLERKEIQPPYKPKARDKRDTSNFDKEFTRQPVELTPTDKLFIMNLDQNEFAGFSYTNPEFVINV
substance,measurement,value
"Protein kinase C beta type (Rattus norvegicus (Rat)), P68403-1 K371M",effect of a mutation on the interaction,with no effect
